Results from publication PMC8249747.

Biological target: T1, QseA (YhcS, AaeR) (Escherichia coli K-12 W3110 type-A) (UniProt P67662)
T1 sequence: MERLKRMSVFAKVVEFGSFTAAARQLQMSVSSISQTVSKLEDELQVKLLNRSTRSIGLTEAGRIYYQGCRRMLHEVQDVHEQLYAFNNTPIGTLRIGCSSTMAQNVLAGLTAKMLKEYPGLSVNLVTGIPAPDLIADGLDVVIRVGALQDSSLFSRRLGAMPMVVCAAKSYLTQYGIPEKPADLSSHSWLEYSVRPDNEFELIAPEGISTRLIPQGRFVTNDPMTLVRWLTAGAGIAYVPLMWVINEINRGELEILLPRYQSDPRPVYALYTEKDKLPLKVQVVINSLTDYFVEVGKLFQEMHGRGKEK
Assay: EMSA
Conditions: EMSA: gel shift buffer (composition not given), 37 C 30 min, PAGE, GelRed, footprinting: 1.0 pmol FITC probe, 25 C 30 min, 5 ng …

For “GCGTTTTAGTCGTTCCATTATTCACTCTGACTTAAAAGTGATTTAGATCACATAATATAGATAACAGCATAACAGTTACGCTAATATATTAAATATCAATCTACAGCAATGTTGCTCTCGCCCGGCTTTCCATGCCCTTCTCTGCGGCGACAGATGCTGAAAATAATAACGCCTGCTCTCTCTTTACAACCAAGGTCAACATGAGTCTGTTTCCCGTTAT (double strand) [aaeX/qseA spacer probe (gel shift)]”, the binding was “binds”.
